This note sets out measurements from patent US7897573B2, “Selective VPAC2 receptor peptide agonists” (priority 2005, dated 2011).

For data set [1], the target named is T1, Human VPAC2 Receptor (Homo sapiens, UniProt P41587).
T1 sequence (P41587 24-438): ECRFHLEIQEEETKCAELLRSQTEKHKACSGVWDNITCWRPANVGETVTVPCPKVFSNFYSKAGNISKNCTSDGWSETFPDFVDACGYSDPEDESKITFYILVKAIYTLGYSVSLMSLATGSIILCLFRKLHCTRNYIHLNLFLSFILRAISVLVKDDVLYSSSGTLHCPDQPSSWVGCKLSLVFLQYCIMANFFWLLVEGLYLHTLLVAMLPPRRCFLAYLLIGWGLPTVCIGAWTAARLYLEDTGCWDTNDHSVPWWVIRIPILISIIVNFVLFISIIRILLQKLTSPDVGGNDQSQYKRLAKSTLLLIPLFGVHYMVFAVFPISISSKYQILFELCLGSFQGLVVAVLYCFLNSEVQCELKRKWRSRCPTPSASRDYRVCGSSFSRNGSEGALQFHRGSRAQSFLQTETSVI
In words: Filter binding assay, 125I-labeled VIP, membranes of stable VPAC2 cell line. As to conditions: 125I-labeled VIP tracer. The protocol:
For this assay, the solutions and equipment include:
Presoak solution: 0.5% Polyethyleneamine in Aqua dest
Buffer for flushing filter plates: 25 mM HEPES pH 7.4
Blocking buffer: 25 mM HEPES pH 7.4; 0.2% protease free BSA
Assay buffer: 25 mM HEPES pH 7.4; 0.5% protease free BSA
Dilution and assay plate: PS-Microplate, U form
Filtration Plate Multiscreen FB Opaque Plate; […] Type B Glasfiber filter
In order to prepare the filter plates, the presoak solution is aspirated by vacuum filtration. The plates are flushed twice with 200 μL flush buffer. 200 μL blocking buffer is added to the filter plate. The filter plate is then incubated with 200 μL presoak solution for 1 hour at room temperature.
The assay plate is filled with 25 μL assay buffer, 25 μL membranes (2.5 μg) suspended in assay buffer, 25 μL agonist in assay buffer, and 25 μL tracer (about 40000 cpm) in assay buffer. The filled plate is incubated for 1 hour with shaking.
The transfer from assay plate to filter plate is conducted. The blocking buffer is aspirated by vacuum filtration and washed two times with flush buffer. 90 μL is transferred from the assay plate to the filter plate. The 90 μL transferred from assay plate is aspirated and washed three times with 200 μL flush buffer. The plastic support is removed. It is dried for 1 hour at 60° C. 30 μL Microscint is added. The count is performed.

Data set [2] addresses T1, Human VPAC2 Receptor. Put plainly: Alpha screen cAMP potency at human VPAC2 receptor. The format is cell-based. As to conditions: cAMP generation; read-out: Human VPAC2 Receptor: Alphascreen (EC50; nM). As for the experimental part: Alpha screen: Cells are washed in the culture flask once with PBS. Then, the cells are rinsed with enzyme free dissociation buffer. The dissociated cells are removed. The cells are then spun down and washed in stimulation buffer. For each data point, 50,000 cells suspended in stimulation buffer are used. To this buffer, Alpha screen acceptor beads are added along with the stimuli. This mixture is incubated for 60 minutes. Lysis buffer and Alpha screen donor beads are added and are incubated for 60 to 120 minutes. The Alpha screen signal (indicative of intracellular cAMP levels) is read in a suitable instrument (e.g. AlphaQuest from Perkin-Elmer). Steps including Alpha screen donor and acceptor beads are performed in reduced light. The EC50 for cAMP generation is calculated from the raw signal or is based on absolute cAMP levels as determined by a standard curve performed on each plate.
The tested peptide concentrations are: 10000, 1000, 100, 10, 3, 1, 0.1, 0.01, 0.003, 0.001, 0.0001 and 0.00001 nM.

The target in another data set is T2, Rat VPAC2 Receptor (Rattus norvegicus, UniProt P35000).
T2 construct: expressed in transfected cells; host or cells: CHO-PO (transient, Lipofectamine)
T2 sequence (P35000 23-437): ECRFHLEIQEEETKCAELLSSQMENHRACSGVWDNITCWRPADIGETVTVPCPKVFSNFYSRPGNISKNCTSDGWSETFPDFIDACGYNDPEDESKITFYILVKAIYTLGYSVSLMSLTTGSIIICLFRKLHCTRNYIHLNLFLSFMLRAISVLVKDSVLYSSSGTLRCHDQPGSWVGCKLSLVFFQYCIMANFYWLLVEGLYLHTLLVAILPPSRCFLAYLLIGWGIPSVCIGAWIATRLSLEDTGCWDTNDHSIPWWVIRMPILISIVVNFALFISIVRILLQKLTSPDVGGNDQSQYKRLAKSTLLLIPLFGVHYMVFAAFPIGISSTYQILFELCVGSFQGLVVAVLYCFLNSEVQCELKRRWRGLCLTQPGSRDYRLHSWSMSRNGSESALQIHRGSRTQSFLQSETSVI
Put plainly: DiscoveRx cAMP potency, CHO-PO cells transiently transfected with rat VPAC2 receptor. As to conditions: cAMP generation. In kind it is cell-based. As for the experimental part: (§1) DiscoveRx: CHO-PO cells are transiently transfected with rat VPAC1 or VPAC2 receptor DNA using commercially available transfection reagents (Lipofectamine from Invitrogen). The cells are seeded at a density of 10,000/well in a 96-well plate and are allowed to grow for 3 days in […] culture medium At day 3, the assay is performed.
(§2) On the day of the experiment, the medium is removed. Also, the cells are washed twice. The cells are incubated in assay buffer plus IBMX for 15 minutes at room temperature. Afterwards, the stimuli are added and are dissolved in assay buffer. The stimuli are present for 30 minutes. Then, the assay buffer is gently removed. The cell lysis reagent of the DiscoveRx cAMP kit is added. Thereafter, the standard protocol for developing the cAMP signal as described by the manufacturer is used (DiscoveRx Inc., USA). EC50 values for cAMP generation are calculated from the raw signal or are based on absolute cAMP levels as determined by a standard curve performed on each plate.
(§3) Results for each agonist are the mean of two independent runs. Rat VPAC1 and VPAC2 results are only generated using the DiscoveRx assay.

Another data set addresses T3, Rat VPAC1 Receptor (Rattus norvegicus, UniProt P30083).
T3 construct: expressed in transfected cells; host or cells: CHO-PO (transient, Lipofectamine)
T3 sequence (P30083 31-459): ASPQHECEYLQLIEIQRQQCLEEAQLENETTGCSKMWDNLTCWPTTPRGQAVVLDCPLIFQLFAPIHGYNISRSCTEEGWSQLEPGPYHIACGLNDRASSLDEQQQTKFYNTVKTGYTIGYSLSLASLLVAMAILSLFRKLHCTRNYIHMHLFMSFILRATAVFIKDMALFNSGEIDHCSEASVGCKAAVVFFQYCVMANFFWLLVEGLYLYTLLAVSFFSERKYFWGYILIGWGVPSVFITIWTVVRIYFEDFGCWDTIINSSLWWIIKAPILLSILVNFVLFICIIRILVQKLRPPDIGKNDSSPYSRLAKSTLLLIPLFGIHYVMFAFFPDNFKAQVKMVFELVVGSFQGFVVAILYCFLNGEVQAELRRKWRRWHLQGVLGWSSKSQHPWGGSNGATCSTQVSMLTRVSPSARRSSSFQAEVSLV
Put plainly: DiscoveRx cAMP potency, CHO-PO cells transiently transfected with rat VPAC1 receptor. The format is cell-based. As to conditions: cAMP generation. As for the experimental part: as §1, §2, §3

Data set [3] is described as follows: Rat serum stability study (DiscoveRx cAMP read-out on CHO-VPAC2 cells). As to conditions: 24 h in rat serum at 37° C.; EC50, 4° C./EC50, 37° C.; values >100% may represent release of intact peptide from the PEG conjugate.

On to “C6-HSDAVFTEK(CO(CH2)2SPEG40K)Y(OMe)TOrnLRAibQVAAAibOrnYLQSIOrnOrnGGPSSGAPPPS-NH2 (HSDAVFTEXYTXLRXQVAAXXYLQSIXXGGPSSGAPPPS; C6 acyl; PEG40K; non-natural residues; amide; Synthetic sequence PEGylated VPAC2 receptor peptide agonist) [Agonist P451]”, for which the IC50 (usually the point on the concentration scale where inhibition reaches its midpoint) with Human VPAC2 Receptor [1] was 596 nM. Besides, the EC50 – broadly, the midpoint of the concentration-response curve – in the data set with Human VPAC2 Receptor [2] was found to be 68.6 nM.
Consider “C6-HSDAVFTEQY(OMe)TOrnLRAibQC(PEG20K)AAAibOrnYLQSIOrnOrnGGPSSGAPPPC(PEG20K)-NH2 (HSDAVFTEQYTXLRXQCAAXXYLQSIXXGGPSSGAPPPC; C6 acyl, two PEG20K, C-terminal amide; Synthetic sequence PEGylated VPAC2 receptor agonist) [Agonist P568]”, for which the EC50 in the data set with Rat VPAC2 Receptor is 250 nM; in the data set with Rat VPAC1 Receptor, above 1000 nM; in the data set with Human VPAC2 Receptor [2], 129 nM.
For “C6-HSDAVFTEQY(OMe)TOrnLRAibQC(PEG40K)AAbuAibOrnY(OMe)LQAibIOrnOrnGGPSSGAPPPS-NH2 (HSDAVFTEQYTXLRXQCAXXXYLQXIXXGGPSSGAPPPS; C6 acyl, non-natural residues, PEG40K, C-terminal amide; Synthetic sequence PEGylated VPAC2 receptor agonist) [Agonist P578]”, the figures for the EC50 with Rat VPAC2 Receptor, in the data set with Rat VPAC1 Receptor and in the data set with Human VPAC2 Receptor [2] were 306 nM, 269 nM and 205 nM, respectively.
The matching figures for “C6-HSDAVFTEQY(OMe)TOrnLRAibQC(PEG40K)AAbuAibOrnY(OMe)LQSIOrnOrnGGPSSGAPPPS-NH2 (HSDAVFTEQYTXLRXQCAXXXYLQSIXXGGPSSGAPPPS; C6 acyl, non-natural residues, PEG40K, C-terminal amide; Synthetic sequence PEGylated VPAC2 receptor agonist) [Agonist P586]”: 187 nM, 502 nM and 122 nM.
“C6-HSDAVFTEQY(OMe)TOrnLRAibQK(WPEG40K)AAAibOrnYLQSIOrnOrnGGPSSGAPPPS-NH2 (HSDAVFTEQYTXLRXQXAAXXYLQSIXXGGPSSGAPPPS; C6 acyl, PEG40K on Lys, C-terminal amide; Synthetic sequence PEGylated VPAC2 receptor agonist) [Agonist P533]” returned an IC50 in the data set with Human VPAC2 Receptor [1] of 959 nM.
For the substance “C6-HSDAVFTEQY(OMe)TOrnLRAibQLAAbUAibOrnY(OMe)LQAibIOrnC(PEG40K)OrnGGPSSGAPPPS-NH2 (HSDAVFTEQYTXLRXQLAXXXYLQXIXCXGGPSSGAPPPS; C6 acyl, non-natural residues, PEG40K, C-terminal amide; Synthetic sequence PEGylated VPAC2 receptor agonist) [Agonist P576]”, the EC50 in the data set with Rat VPAC2 Receptor turned out to be 67.4 nM; in the data set with Rat VPAC1 Receptor it was 461 nM; with Human VPAC2 Receptor [2], 55 nM.
With “C6-HSDAVFTEQY(OMe)TOrnLRAibQLAAbuAibOrnY(OMe)LQSIOrnC(PEG20K)OrnGGPSSGAPPPC(PEG20K)-NH2 (HSDAVFTEQYTXLRXQLAXXXYLQSIXCXGGPSSGAPPPC; C6 acyl, non-natural residues, two PEG20K, C-terminal amide; Synthetic sequence PEGylated VPAC2 receptor agonist) [Agonist P588]”, the EC50 was 311 nM with Rat VPAC2 Receptor, 406 nM with Rat VPAC1 Receptor and 54 nM with Human VPAC2 Receptor [2].
As for “C6-HSDAVFTEQY(OMe)TOrnLRAibQLAAbuAibOrnY(OMe)LQSIOrnC(PEG40K)OrnGGPSSGAPPPS-NH2 (HSDAVFTEQYTXLRXQLAXXXYLQSIXCXGGPSSGAPPPS; C6 acyl, non-natural residues, PEG40K, C-terminal amide; Synthetic sequence PEGylated VPAC2 receptor agonist) [Agonist P584]”, the EC50 in the data set with Rat VPAC2 Receptor worked out at 67.2 nM; in the data set with Rat VPAC1 Receptor it was 188 nM; in the data set with Human VPAC2 Receptor [2] it was 51.2 nM.
As for “C6-HSDAVFTEQY(OMe)TOrnLRAibQVAAAibK(CO(CH2)2SPEG40K)YLQSIOrnOrnGGPSSGAPPPS-NH2 (HSDAVFTEQYTXLRXQVAAXXYLQSIXXGGPSSGAPPPS; C6 acyl; PEG40K; non-natural residues; amide; Synthetic sequence PEGylated VPAC2 receptor peptide agonist) [Agonist P472]”, the “24 h stab (%)” value in data set [3] worked out at 66%. The concentration for a half-maximal effect (EC50) stood at 285 nM in the data set with Rat VPAC2 Receptor and 123 nM with Human VPAC2 Receptor [2].
For the substance “C6-HSDAVFTEQY(OMe)TOrnLRAibQVAAAibOrnYAibQSIOrnOrnGGPSSGAPPPC(PEG40K)-NH2 (HSDAVFTEQYTXLRXQVAAXXYXQSIXXGGPSSGAPPPC; C6 acyl, PEG40K on Cys, C-terminal amide; Synthetic sequence PEGylated VPAC2 receptor agonist) [Agonist P507]”, the EC50 with Rat VPAC2 Receptor was 94.9 nM; with Rat VPAC1 Receptor it was above 1000 nM; with Human VPAC2 Receptor [2], 27.1 nM.
